Molecular target: microtubules (MTs) assembled with taxol in M-phase Xenopus egg extract (Xenopus laevis (endogenous in egg extract))
Assay: co-sedimentation

Question: Which fold increase in MT binding (against xINCENP) does the source give for “GFP-xINCENP 7A (from UniProt O13024 1-873) (natural protein)” here?
Answer: 2 fold
